Changes are numbered by the printed parent chain. Numbers in names are those of the source.
T1: ATP phosphoribosyltransferase (HisG) (Corynebacterium glutamicum, UniProt Q9Z472)
T1 construct: made in house; host or cells: Corynebacterium glutamicum ATCC 13032 (wild type) and HCJ-96, -161, -162, -163, -164, -165 (chromosomal hisG alleles); unpurified supernatant of sonicated cells
T1 sequence (Q9Z472 whole entry, looked up): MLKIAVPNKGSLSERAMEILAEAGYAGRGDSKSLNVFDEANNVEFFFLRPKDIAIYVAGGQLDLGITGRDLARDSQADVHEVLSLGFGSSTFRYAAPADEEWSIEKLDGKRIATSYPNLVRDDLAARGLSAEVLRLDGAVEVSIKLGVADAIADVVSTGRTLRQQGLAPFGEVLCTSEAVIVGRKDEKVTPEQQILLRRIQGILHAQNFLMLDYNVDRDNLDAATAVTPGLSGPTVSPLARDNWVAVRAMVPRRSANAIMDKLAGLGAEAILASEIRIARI

B1: HisG (N215R/G233H/T235Q): ATP phosphoribosyltransferase variant N215R/G233H/T235Q, SEQ ID NO: 1 (protein)
chain: T1 sequence (Q9Z472 whole entry, looked up) with N215R, G233H, T235Q
modifications: HisG
B2: HisG (N215K/G233H/T235Q): ATP phosphoribosyltransferase variant N215K/G233H/T235Q (protein)
chain: T1 sequence (Q9Z472 whole entry, looked up) with N215K, G233H, T235Q
B3: HisG (N215R/L231F/T235A): ATP phosphoribosyltransferase variant N215R/L231F/T235A (protein)
chain: T1 sequence (Q9Z472 whole entry, looked up) with N215R, L231F, T235A
B4: HisG (G233H/T235Q): ATP phosphoribosyltransferase variant with G233H and T235Q substitutions (protein)
chain: T1 sequence (Q9Z472 whole entry, looked up) with G233H, T235Q
B5: HisG (N215K/L231F/T235A): known HisG variant N215K/L231F/T235A (Biochimie. 2012 March; 94(3):829-38) (protein)
chain: T1 sequence (Q9Z472 whole entry, looked up) with N215K, L231F, T235A
B6: HisG (N215R): ATP phosphoribosyltransferase variant with N215R substitution (protein)
chain: T1 sequence (Q9Z472 whole entry, looked up) with N215R
B7: HisG: wild-type Corynebacterium glutamicum ATP phosphoribosyltransferase, SEQ ID NO: 13 (protein)
chain: T1 sequence (Q9Z472 whole entry, looked up)
modifications: HisG

test system: ATP phosphoribosyltransferase (HisG); experiment: Measurement of activities of ATP phosphoribosyltransferases (UV 290 nm, cell supernatant); format: biochemical, Corynebacterium glutamicum; conditions: 30° C., UV 290 nm, no L-histidine
Procedure: Corynebacterium glutamicum ATCC 13032 and the strains HCJ-96, HCJ-161, HCJ-162, HCJ-163, HCJ-164, and HCJ-165 selected in Example 3 were each inoculated into a corner-baffle flask (250 mL) containing a seed medium (25 mL), and were cultured at 30° C. for 20 hours with shaking at 200 rpm to obtain a seed culture solution. Thereafter, the seed culture solution (1 mL) was inoculated into a corner-baffle flask (250 mL) containing a production medium (24 mL), and was cultured at 30° C. for 45 hours at 200 rpm. After the culture, the obtained cells were sonicated and centrifuged, and the supernatant obtained therefrom was used for evaluation of the activity of ATP phosphoribosyltransferase.
The activities of the ATP phosphoribosyltransferase variants obtained in Example 4-1 and that of a wild-type ATP phosphoribosyltransferase variant were measured. The evaluation of the activities of these enzymes was performed with reference to the conditions described in an existing literature report (Biochimie. 2012 March; 94(3):829-38.).
For the evaluation of the activities of the enzymes, the supernatant was quantified to give the same concentration. These enzymes were used as sample enzymes, and the reaction conditions were as follows: the reaction compositions were mixed to the quantified protein (0.05 mg) to give a total amount of 500 μL, and then measured at 30° C. at a UV wavelength of 290 nm for 90 seconds. With regard to the wild-type ATP phosphoribosyltransferase having low activity, the supernatant protein (0.3 mg) was used and measured at a UV wavelength of 290 nm for 30 minutes for the activity evaluation. The composition of the reaction solution for measuring the activities of the enzymes is as follows: […]

Molecule | Activity of ATP phosphoribosyltransferase (HisG) [U/mg]
B1 | 2.082
B2 | 1.3
B3 | 0.408
B4 | 1.381
B5 | 0.387
B6 | 0.021
B7 | 0.013

same assay, conditions: relative to wild-type enzyme

Molecule | activity fold higher than that of the wild-type enzyme
B1 | about 160 fold

target: T1, ATP phosphoribosyltransferase (HisG); experiment: Degree of inhibition by L-histidine on activities of ATP phosphoribosyltransferase variants; format: biochemical; conditions: L-histidine 50 mM and 100 mM
Procedure: (§1) For the evaluation of the activities of the enzymes, the supernatant was quantified to give the same concentration. These enzymes were used as sample enzymes, and the reaction conditions were as follows: the reaction compositions were mixed to the quantified protein (0.05 mg) to give a total amount of 500 μL, and then measured at 30° C. at a UV wavelength of 290 nm for 90 seconds. With regard to the wild-type ATP phosphoribosyltransferase having low activity, the supernatant protein (0.3 mg) was used and measured at a UV wavelength of 290 nm for 30 minutes for the activity evaluation. The composition of the reaction solution for measuring the activities of the enzymes is as follows:
(§2) The degree of inhibition by L-histidine on the activities of ATP phosphoribosyltransferase and the ATP phosphoribosyltransferase variants obtained in Example 4-1 was measured. Specifically, the activities of these enzymes were measured in the reaction composition solution of Example 4-2, which contained L-histidine (0 mM, 50 mM, or 100 mM), using the method described in Example 4-2. […] However, the activities of the ATP phosphoribosyltransferase variants were less inhibited by L-histidine.

Molecule | inhibition of enzyme activity by L-histidine (in words)
B7 | completely inhibited

target: T2, ATP phosphoribosyltransferase (HisG) (Corynebacterium glutamicum, UniProt Q9Z472, G233H/N215R/T235Q); experiment: as above; format: biochemical; conditions: L-histidine 100 mM
T2 construct: made in house; host or cells: Corynebacterium glutamicum ATCC 13032 (wild type) and HCJ-96, -161, -162, -163, -164, -165 (chromosomal hisG alleles); unpurified supernatant of sonicated cells
Procedure: as §1, §2

T2 sequence (Q9Z472 whole entry N215R/G233H/T235Q): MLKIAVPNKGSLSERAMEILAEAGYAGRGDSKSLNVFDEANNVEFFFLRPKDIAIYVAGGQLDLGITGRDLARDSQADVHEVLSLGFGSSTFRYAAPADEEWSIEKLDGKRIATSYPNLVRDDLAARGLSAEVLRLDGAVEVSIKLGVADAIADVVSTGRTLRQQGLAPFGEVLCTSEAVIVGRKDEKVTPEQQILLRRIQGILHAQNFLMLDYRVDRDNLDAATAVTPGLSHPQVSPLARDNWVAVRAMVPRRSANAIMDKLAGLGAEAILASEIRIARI

Molecule | activity in composition solution containing L-histidine (in words)
B1 | showed the highest activity

test system: ATP phosphoribosyltransferase (HisG); experiment: as above; format: biochemical, Corynebacterium glutamicum; conditions: L-histidine 0 mM
Procedure: as §1, §2

Molecule | Activity of Enzyme, 0 mM L-histidine [U/mg]
B1 | 2.082
B2 | 1.3
B3 | 0.408
B4 | 1.381
B5 | 0.387
B6 | 0.021
B7 | 0.013

same assay, conditions: L-histidine 50 mM

Molecule | Activity of Enzyme, 50 mM L-histidine [U/mg]
B1 | 1.435
B2 | 0.679
B3 | 0.157
B4 | 0.64
B5 | 0.202
B6 | 0
B7 | 0

same assay, conditions: L-histidine 100 mM

Molecule | Activity of Enzyme, 100 mM L-histidine [U/mg]
B1 | 1.335
B2 | 0.413
B3 | 0
B4 | 0.542
B5 | 0.023
B6 | 0
B7 | 0

Source: patent US11098333B2, “ATP phosphoribosyltransferase variant and method for producing L-histidine using the same” (priority 2017, dated 2021)
